Reference: patent US20230285589A1, “LIPOSOME COMPLEX FOR CANCER TREATMENT, COMPRISING NOVEL CD47 BINDER AND POLYNUCLEOTIDE” (priority 2020, published 2023)

B1: NT5M: Human mitochondrial 5′-deoxyribonucleotidase (SEQ ID NO: 32) (protein)
chain: MGGRALRVLVDMDGVLADFEGGFLRKFRARFPDQPFIALEDRRGFWVSEQYGRLRPGLSEKAISIWESKNFFFELEPLPGAVEAVKEMASLQNTDVFICTSPIKMFKYCPYEKYAWVEKYFGPDFLEQIVLTRDKTVVSADLLIDDRPDITGAEPTPSWEHVLFTACHNQHLQLQPPRRRLHSWADDWKAILDSKRPC
modifications: NT5M
B2: SV4: CD47 binder of SEQ ID NO: 2; SV1 with lysines at positions 11 and 104 substituted with leucine (protein)
chain: MEEELQIIQPDLSVSVAAGESAILHCTITSLFPVGPIQWFRGAGPARVLIYNQRQGPFPRVTTVSETTKRENMDFSISISNITPADAGTYYCIKFRKGSPDTEFLSGAGTELSVRAKPS
modifications: CD47 binder SV4

Experiments:
[1] = 5'-nucleotidase preferred substrate (Km), dTMP; assay type: biochemical; details: according to Table 4
recombinant CD47 protein = recombinant CD47 protein (Homo sapiens, UniProt Q08722); test: SPR, CD47 conjugated to CM5 chip; details: 250 RU CD47, 1:1 binding model
recombinant CD47 protein, sequence (Q08722 19-323): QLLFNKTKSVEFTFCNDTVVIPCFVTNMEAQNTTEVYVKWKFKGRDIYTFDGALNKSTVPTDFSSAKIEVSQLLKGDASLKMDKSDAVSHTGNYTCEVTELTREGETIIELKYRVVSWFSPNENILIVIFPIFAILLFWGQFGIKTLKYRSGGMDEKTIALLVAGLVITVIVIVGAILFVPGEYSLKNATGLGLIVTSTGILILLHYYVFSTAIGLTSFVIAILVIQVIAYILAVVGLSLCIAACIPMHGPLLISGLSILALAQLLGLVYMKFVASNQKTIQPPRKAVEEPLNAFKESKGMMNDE
Procedure: Specifically, the recombinant CD47 protein was conjugated to the surface of the CM5 chip by a target SPR reaction of 250 RU through an EDC-NHS reaction to be used, and for HBS-P, the sensogram obtained through a process of association for 3 minutes and dissociation for 10 minutes at a flow rate of 30 μL/minutes was analyzed with the BiaEvaluation software using a 1:1 binding model and global fitting.

Molecule | affinity for dTMP, times lower compared to T001 [1] | ka (recombinant CD47 protein) | kd (recombinant CD47 protein)
B1 | 30 times | – | –
B2 | – | 164000 M⁻¹ s⁻¹ | 0.000275 s⁻¹
